One block for each substance: values may come before it.
Key:
[1] = target: anti-ubiquitin antibody (Mouse IgG1 monoclonal antibody; clone name FK2); experiment: mRNA display pull-down on anti-ubiquitin antibody (FK2) magnetic beads, heat elution, qPCR
[2] = target: anti-ubiquitin antibody (Mouse IgG1 monoclonal antibody; clone name FK2); experiment: mRNA display pull-down on anti-ubiquitin antibody (FK2) magnetic beads, qPCR; corrected with the display efficiency
[3] = target: biotinylated GFP1-9; experiment: mRNA display pull-down with biotinylated GFP1-9, qPCR; corrected with the display efficiency
[4] = target: biotinylated GFP1-9; experiment: mRNA display pull-down: 0.42 µM Display molecule with 1 µM biotinylated GFP1-9, streptavidin beads, TEV elution, qPCR
[5] = target: anti-ubiquitin antibody (Mouse IgG1 monoclonal antibody; clone name FK2); experiment: mRNA display pull-down on anti-ubiquitin antibody (FK2) magnetic beads, qPCR; 1:1 mixture of the two display molecules
[6] = target: anti-ubiquitin antibody (Mouse IgG1 monoclonal antibody; clone name FK2); experiment: mRNA display pull-down on anti-ubiquitin antibody (FK2) magnetic beads, qPCR; 1:1 mixture; corrected with the display efficiency
[7] = target: biotinylated GFP1-9; experiment: cell-based or functional assay
[8] = target: anti-ubiquitin antibody (Mouse IgG1 monoclonal antibody; clone name FK2); experiment: mRNA display pull-down on anti-ubiquitin antibody (FK2) magnetic beads, qPCR
[9] = target: GFP10-Link12-FRB-His×6; experiment: cell-based or functional assay
Sequence of GFP10-Link12-FRB-His×6 (chain, as listed by the source limits assumed): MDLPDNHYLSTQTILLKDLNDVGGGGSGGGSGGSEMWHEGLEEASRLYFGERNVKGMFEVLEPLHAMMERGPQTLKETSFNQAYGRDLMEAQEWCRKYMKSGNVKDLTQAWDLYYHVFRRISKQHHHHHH

Sequence of His×6-FKBP12-Link12-GFP11 (chain): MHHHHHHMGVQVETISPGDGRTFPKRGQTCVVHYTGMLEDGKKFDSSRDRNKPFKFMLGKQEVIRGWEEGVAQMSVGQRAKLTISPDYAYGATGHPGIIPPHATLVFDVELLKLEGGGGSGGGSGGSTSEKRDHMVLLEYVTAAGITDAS
Sequence of GFP10-11 fusion peptide (peptide; modification not given; biotinylated at the Avi tag (co-expression with BirA)) (chain, as listed by the source): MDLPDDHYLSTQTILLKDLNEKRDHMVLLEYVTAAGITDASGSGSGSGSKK
Sequence of GFP10-Link12-FRB-His×6 (chain): as the sequence (chain, as listed by the source limits assumed) above

Substance: splitUb(C) (peptide)
- Apparent recovery rate (%) [1]: 0.571%
- Recovered nucleic acid amount (molecules) [1]: 1.16e+10 molecules
- Recovery rate (%) [2]: 1.01%

Substance: GFP10-11 fusion peptide (peptide; modification not given; biotinylated at the Avi tag (co-expression with BirA))
- Recovery rate (%) [3]: 23.4%
- Apparent recovery rate (%) [4]: 13.1%
- Recovered nucleic acid amount (molecules) [4]: 1.31e+11 molecules

Substance: splitUb (N) + splitUb (C)
- Apparent recovery rate (%) [5]: 0.194%
- Recovered nucleic acid amount (molecules) [5]: 7.16e+09 molecules
- Recovery rate (%) [6]: 0.344%

Substance: GFP10-Link12-FRB-His×6
- Recovered nucleic acid amount (molecules) of compound nk06 by pull-down with biotinylated GFP1-9; Condition 4, FKBP12-GFP11 absent [7]: 2.24e+08 molecules
- Recovery rate (%) of compound nk06 by pull-down with biotinylated GFP1-9; Condition 4, FKBP12-GFP11 absent [7]: 0.055%

The remaining lines, values ahead:

- fold higher recovery rate than the other controls [8]: > 16 times
- Apparent recovery rate (%) [1]: 12.3%
- Recovered nucleic acid amount (molecules) [1]: 6.69e+10 molecules
- Recovery rate (%) [2]: 16.1%
Substance: splitUb(N-C)

- Recovered nucleic acid amount (molecules) of compound nk06 (rapamycin-nucleic acid) by pull-down with biotinylated GFP1-9; Condition 1, all three proteins at 1 µM [9]: 3.5e+10 molecules
- Recovery rate (%) of compound nk06 (rapamycin-nucleic acid) by pull-down with biotinylated GFP1-9; Condition 1, all three proteins at 1 µM [9]: 8.62%
- Recovered nucleic acid amount (molecules) of compound nk06 by pull-down with biotinylated GFP1-9; Condition 3, GFP10-FRB absent [7]: 8.21e+08 molecules
- Recovery rate (%) of compound nk06 by pull-down with biotinylated GFP1-9; Condition 3, GFP10-FRB absent [7]: 0.202%
Substance: His×6-FKBP12-Link12-GFP11

Reference: patent publication US20240069033A1, “METHOD FOR SCREENING FOR CANDIDATE MOLECULE CAPABLE OF FORMING COMPLEX IN CONJUNCTION WITH PLURALITY OF TARGET MOLECULES” (Chugai Seiyaku Kabushiki Kaisha, priority 2020, published 2024)
